Legend:
[1] = target: Rod-B; experiment: co-sedimentation; filament disassembly assay without His-Aurora-B; Rod-B proteins in kinase buffer (20 mM Tris pH 7.5, 10 mM MgCl2, 1 mM DTT, 50 μM ATP), 60 min at 30 °C, then high-speed centrifugation; filaments to nonfilamentous fraction
[2] = target: His-survivin (UniProt O15392); experiment: pull-down (quantification of Coomassie-stained SDS-PAGE); conditions: mean ± SEM of three independent experiments; parent: est. 1.0; read off a plot
[3] = target: Rod-B phosphorylated by His-Aurora-B; experiment: co-sedimentation; filament disassembly assay with His-Aurora-B; Rod-B proteins with recombinant His-Aurora-B in kinase buffer (20 mM Tris pH 7.5, 10 mM MgCl2, 1 mM DTT, 50 μM ATP), 60 min at 30 °C, then high-speed centrifugation; filaments to nonfilamentous fraction
[4] = target: Rod-B^T1847A; experiment: co-sedimentation; filament disassembly assay without His-Aurora-B; Rod-B proteins in kinase buffer (20 mM Tris pH 7.5, 10 mM MgCl2, 1 mM DTT, 50 μM ATP), 60 min at 30 °C, then high-speed centrifugation; filaments to nonfilamentous fraction
[5] = target: Rod-B^T1847A; experiment: co-sedimentation; filament disassembly assay with His-Aurora-B; Rod-B proteins with recombinant His-Aurora-B in kinase buffer (20 mM Tris pH 7.5, 10 mM MgCl2, 1 mM DTT, 50 μM ATP), 60 min at 30 °C, then high-speed centrifugation; filaments to nonfilamentous fraction
[6] = target: His-survivin (UniProt O15392); experiment: pull-down; direct pull-down; His-survivin proteins (40-45 μg) held on Ni2+-NTA beads, Rod-B proteins (40-45 μg) added; Buffer B: 20 mM Tris-HCl pH 8, 275 mM NaCl, 5% glycerol, 1% NP-40, 30 mM imidazole; 4 °C; eluted with 250 mM imidazole; Coomassie-stained SDS-PAGE

Chain of Rod-B phosphorylated by His-Aurora-B (P35580 whole entry): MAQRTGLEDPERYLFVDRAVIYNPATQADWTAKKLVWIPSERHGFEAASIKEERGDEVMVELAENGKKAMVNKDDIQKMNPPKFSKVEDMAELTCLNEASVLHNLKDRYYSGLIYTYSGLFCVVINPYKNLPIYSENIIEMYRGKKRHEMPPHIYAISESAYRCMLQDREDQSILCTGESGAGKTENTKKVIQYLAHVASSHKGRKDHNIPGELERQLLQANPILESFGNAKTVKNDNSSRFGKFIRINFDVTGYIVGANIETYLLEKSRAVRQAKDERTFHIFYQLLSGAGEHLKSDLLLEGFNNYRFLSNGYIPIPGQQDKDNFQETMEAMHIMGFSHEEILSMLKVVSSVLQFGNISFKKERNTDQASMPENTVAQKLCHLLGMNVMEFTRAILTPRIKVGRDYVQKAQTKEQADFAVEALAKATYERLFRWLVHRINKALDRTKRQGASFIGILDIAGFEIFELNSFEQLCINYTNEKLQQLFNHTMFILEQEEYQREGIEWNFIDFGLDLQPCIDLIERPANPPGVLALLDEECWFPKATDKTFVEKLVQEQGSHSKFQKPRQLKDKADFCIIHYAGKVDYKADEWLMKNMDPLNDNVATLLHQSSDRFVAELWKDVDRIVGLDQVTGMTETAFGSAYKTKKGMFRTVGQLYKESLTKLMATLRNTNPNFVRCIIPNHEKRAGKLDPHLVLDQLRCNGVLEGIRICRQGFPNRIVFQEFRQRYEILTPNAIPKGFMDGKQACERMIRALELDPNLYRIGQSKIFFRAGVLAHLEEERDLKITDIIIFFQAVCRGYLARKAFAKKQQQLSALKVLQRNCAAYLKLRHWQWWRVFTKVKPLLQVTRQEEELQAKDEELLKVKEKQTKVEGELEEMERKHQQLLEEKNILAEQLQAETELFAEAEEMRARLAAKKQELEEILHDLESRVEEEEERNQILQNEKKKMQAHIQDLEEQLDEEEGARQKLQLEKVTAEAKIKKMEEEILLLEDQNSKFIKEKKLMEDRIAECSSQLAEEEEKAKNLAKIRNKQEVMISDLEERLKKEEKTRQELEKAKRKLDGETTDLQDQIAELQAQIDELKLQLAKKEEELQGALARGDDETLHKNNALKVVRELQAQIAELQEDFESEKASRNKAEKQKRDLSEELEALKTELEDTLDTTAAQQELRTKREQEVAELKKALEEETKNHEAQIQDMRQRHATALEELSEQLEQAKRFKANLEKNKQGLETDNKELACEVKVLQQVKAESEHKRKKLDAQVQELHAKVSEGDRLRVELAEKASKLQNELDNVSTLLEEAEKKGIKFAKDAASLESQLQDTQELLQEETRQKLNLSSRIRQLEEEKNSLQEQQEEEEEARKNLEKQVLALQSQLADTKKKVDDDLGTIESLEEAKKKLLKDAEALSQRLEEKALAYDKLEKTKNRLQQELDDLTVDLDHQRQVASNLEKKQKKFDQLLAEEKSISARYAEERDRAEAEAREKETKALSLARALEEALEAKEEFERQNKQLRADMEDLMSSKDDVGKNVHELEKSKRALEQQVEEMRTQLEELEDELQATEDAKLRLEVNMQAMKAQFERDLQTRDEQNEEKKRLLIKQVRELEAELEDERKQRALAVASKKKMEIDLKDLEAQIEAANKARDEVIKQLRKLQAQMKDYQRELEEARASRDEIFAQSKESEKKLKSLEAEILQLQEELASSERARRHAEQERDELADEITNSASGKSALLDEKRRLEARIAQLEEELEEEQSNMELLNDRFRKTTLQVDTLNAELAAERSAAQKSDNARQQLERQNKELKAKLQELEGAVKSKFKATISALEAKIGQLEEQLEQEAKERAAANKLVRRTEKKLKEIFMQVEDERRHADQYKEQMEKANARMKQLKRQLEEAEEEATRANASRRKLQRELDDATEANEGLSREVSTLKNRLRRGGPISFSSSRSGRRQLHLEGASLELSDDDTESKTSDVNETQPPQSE
Chain of Rod-B (P35580 whole entry): as above

Substance: Rod-B (domain or fragment)
- percent in the nonfilamentous fraction [1]: 28%

Substance: Rod-B T1847A
- ratio to parent [2]: 1.1

Substance: Rod-B phosphorylated by His-Aurora-B (domain or fragment)
- percent in the nonfilamentous fraction [3]: 42%

Substance: Rod-B^T1847A (domain or fragment)
- percent in the nonfilamentous fraction [4]: 34%
- percent in the nonfilamentous fraction [5]: 36.8%

Substance: Rod-B^T1847D (domain or fragment)
- percent reduction of binding to survivin relative to Rod-B [6]: 80%

Reference: article PMC8385403
